Consider five molecules from paper PMC10413161.

The target in assay [1] is human complement C1r, zymogen form (human) (UniProt P00736).
Assay [2] has as its target Borrelia hermsii strain HS1 FbpC C-terminal domain, residues 212-374 (Borrelia hermsii strain HS1). Put plainly: SPR; FbpC-C, FbpC-C R248A or FbpC-C H252A immobilised by amine coupling on a CMD200 chip (1138.2, 975.2, 1082 RU); zymogen or active C1r injected, single-cycle five-fold dilution series 0.16 to 100 nM; Biacore T200, 25 °C, 30 μl/min; HBS-T (10 mM Hepes pH 7.3, 140 mM NaCl, 0.005% Tween 20) with 5 mM CaCl2; kinetic fits, triplicate.

Assay [3] has as its target Borrelia hermsii strain HS1 FbpC C-terminal domain, residues 212-374, R248A (Borrelia hermsii strain HS1). The assay is described as above.
For assay [4], the target named is Borrelia hermsii strain HS1 FbpC C-terminal domain, residues 212-374, H252A (Borrelia hermsii strain HS1). The assay is described as above.

Turning to “Borrelia hermsii strain HS1 FbpC C-terminal domain, residues 212-374, H252A (domain or fragment)”, the CP-specific complement ELISA (C4b deposition, 2% normal human serum), IC50 in assay [1] amounted to 300 nM.
Consider “Borrelia hermsii strain HS1 FbpC C-terminal domain, residues 212-374, R248A (domain or fragment)”, for which, in assay [1], the CP hemolysis of presensitized sheep erythrocytes (2% normal human serum), IC50 stood at 1200 nM and the CP-specific complement ELISA (C4b deposition, 2% normal human serum), IC50 is 23 nM.
In the case of “Borrelia hermsii strain HS1 FbpC C-terminal domain, residues 212-374 (domain or fragment)”, in assay [1], the CP hemolysis of presensitized sheep erythrocytes (2% normal human serum), IC50 worked out at 320 nM and the CP-specific complement ELISA (C4b deposition, 2% normal human serum), IC50 was 8.6 nM.

B1: human complement C1r, zymogen form (enzyme)
chain: SIPIPQKLFGEVTSPLFPKPYPNNFETTTVITVPTGYRVKLVFQQFDLEPSEGCFYDYVKISADKKSLGRFCGQLGSPLGNPPGKKEFMSQGNKMLLTFHTDFSNEENGTIMFYKGFLAYYQAVDLDECASRSKSGEEDPQPQCQHLCHNYVGGYFCSCRPGYELQEDTHSCQAECSSELYTEASGYISSLEYPRSYPPDLRCNYSIRVERGLTLHLKFLEPFDIDDHQQVHCPYDQLQIYANGKNIGEFCGKQRPPDLDTSSNAVDLLFFTDESGDSRGWKLRYTTEIIKCPQPKTLDEFTIIQNLQPQYQFRDYFIATCKQGYQLIEGNQVLHSFTAVCQDDGTWHRAMPRCKIKDCGQPRNLPNGDFRYTTTMGVNTYKARIQYYCHEPYYKMQTRAGSRESEQGVYTCTAQGIWKNEQKGEKIPRCLPVCGKPVNPVEQRQRIIGGQKAKMGNFPWQVFTNIHGRGGGALLGDRWILTAAHTLYPKEHEAQSNASLDVFLGHTNVEELMKLGNHPIRRVSVHPDYRQDESYNFEGDIALLELENSVTLGPNLLPICLPDNDTFYDLGLMGYVSGFGVMEEKIAHDLRFVRLPVANPQACENWLRGKNRMDVFSQNMFCAGHPSLKQDACQGDSGGVFAVRDPNTDRWVATGIVSWGIGCSRGYGFYTKVLNYVDWIKKEMEEED
Consider B1, for which, in assay [2], the dissociation constant (Kd) is 1.2 nM, the dissociation rate constant (koff) amounted to 5.4e-05 s⁻¹ and the kon is 44000 M⁻¹ s⁻¹. In assay [3], this molecule gave a Kd of 13 nM, a koff of 0.00063 s⁻¹ and a kon of 69000 M⁻¹ s⁻¹.

B2: human complement C1r, activated form (enzyme)
chain: SIPIPQKLFGEVTSPLFPKPYPNNFETTTVITVPTGYRVKLVFQQFDLEPSEGCFYDYVKISADKKSLGRFCGQLGSPLGNPPGKKEFMSQGNKMLLTFHTDFSNEENGTIMFYKGFLAYYQAVDLDECASRSKSGEEDPQPQCQHLCHNYVGGYFCSCRPGYELQEDTHSCQAECSSELYTEASGYISSLEYPRSYPPDLRCNYSIRVERGLTLHLKFLEPFDIDDHQQVHCPYDQLQIYANGKNIGEFCGKQRPPDLDTSSNAVDLLFFTDESGDSRGWKLRYTTEIIKCPQPKTLDEFTIIQNLQPQYQFRDYFIATCKQGYQLIEGNQVLHSFTAVCQDDGTWHRAMPRCKIKDCGQPRNLPNGDFRYTTTMGVNTYKARIQYYCHEPYYKMQTRAGSRESEQGVYTCTAQGIWKNEQKGEKIPRCLPVCGKPVNPVEQRQRIIGGQKAKMGNFPWQVFTNIHGRGGGALLGDRWILTAAHTLYPKEHEAQSNASLDVFLGHTNVEELMKLGNHPIRRVSVHPDYRQDESYNFEGDIALLELENSVTLGPNLLPICLPDNDTFYDLGLMGYVSGFGVMEEKIAHDLRFVRLPVANPQACENWLRGKNRMDVFSQNMFCAGHPSLKQDACQGDSGGVFAVRDPNTDRWVATGIVSWGIGCSRGYGFYTKVLNYVDWIKKEMEEED
In the case of B2, in assay [2], the Kd stood at 0.3 nM, the koff came to 1.4e-05 s⁻¹ and the kon turned out to be 48000 M⁻¹ s⁻¹. In assay [4], this molecule showed a Kd of 2.4 nM, an off-rate constant (koff) of 0.00012 s⁻¹ and a kon of 51000 M⁻¹ s⁻¹. In assay [3], this molecule had a Kd of 0.19 nM, a koff of 9.4e-06 s⁻¹ and an association rate constant (kon) of 45000 M⁻¹ s⁻¹.
